In this test the target is IL-1 receptor (UniProt P14778). The test is described as follows: cell-based or functional assay.
Chain of UniProt P14778 (P14778 18-569 limits assumed): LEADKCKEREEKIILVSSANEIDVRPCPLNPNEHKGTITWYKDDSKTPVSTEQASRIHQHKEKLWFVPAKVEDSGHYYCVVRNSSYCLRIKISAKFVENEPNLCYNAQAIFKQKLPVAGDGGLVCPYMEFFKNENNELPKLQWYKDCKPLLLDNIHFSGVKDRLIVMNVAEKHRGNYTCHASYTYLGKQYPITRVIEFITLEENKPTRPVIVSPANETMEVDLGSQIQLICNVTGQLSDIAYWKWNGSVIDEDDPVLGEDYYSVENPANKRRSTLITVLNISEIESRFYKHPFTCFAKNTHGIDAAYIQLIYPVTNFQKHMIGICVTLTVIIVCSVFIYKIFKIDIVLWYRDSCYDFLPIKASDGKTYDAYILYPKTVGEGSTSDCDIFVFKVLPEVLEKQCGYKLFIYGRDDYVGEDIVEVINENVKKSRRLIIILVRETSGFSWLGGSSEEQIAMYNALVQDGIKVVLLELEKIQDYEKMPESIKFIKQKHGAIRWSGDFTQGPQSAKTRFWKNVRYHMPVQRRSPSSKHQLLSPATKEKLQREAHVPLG

Take “Kineret® (anakinra) (from UniProt P18510 26-177) (ligand)”: the IC50 (pM): inhibition of IL-8 released by IL-1β stimulation, human whole blood, 100 pM rhIL-1β is 53.4 pM.

These data come from patent US20140017249A1.
